Data reported in patent US12404345B2, “Humanized antibodies against iRHOM2” (SCIRHOM GMBH, priority 2021, dated 2025).

Target: T1, endogenous iRhom2 on RPMI-8226 cells (Homo sapiens, UniProt Q6PJF5)
T1 construct: RPMI-8226 cells, a human B lymphocytic cell line endogenously expressing iRhom2; host or cells: RPMI-8226
T1 sequence (Q6PJF5 1-856): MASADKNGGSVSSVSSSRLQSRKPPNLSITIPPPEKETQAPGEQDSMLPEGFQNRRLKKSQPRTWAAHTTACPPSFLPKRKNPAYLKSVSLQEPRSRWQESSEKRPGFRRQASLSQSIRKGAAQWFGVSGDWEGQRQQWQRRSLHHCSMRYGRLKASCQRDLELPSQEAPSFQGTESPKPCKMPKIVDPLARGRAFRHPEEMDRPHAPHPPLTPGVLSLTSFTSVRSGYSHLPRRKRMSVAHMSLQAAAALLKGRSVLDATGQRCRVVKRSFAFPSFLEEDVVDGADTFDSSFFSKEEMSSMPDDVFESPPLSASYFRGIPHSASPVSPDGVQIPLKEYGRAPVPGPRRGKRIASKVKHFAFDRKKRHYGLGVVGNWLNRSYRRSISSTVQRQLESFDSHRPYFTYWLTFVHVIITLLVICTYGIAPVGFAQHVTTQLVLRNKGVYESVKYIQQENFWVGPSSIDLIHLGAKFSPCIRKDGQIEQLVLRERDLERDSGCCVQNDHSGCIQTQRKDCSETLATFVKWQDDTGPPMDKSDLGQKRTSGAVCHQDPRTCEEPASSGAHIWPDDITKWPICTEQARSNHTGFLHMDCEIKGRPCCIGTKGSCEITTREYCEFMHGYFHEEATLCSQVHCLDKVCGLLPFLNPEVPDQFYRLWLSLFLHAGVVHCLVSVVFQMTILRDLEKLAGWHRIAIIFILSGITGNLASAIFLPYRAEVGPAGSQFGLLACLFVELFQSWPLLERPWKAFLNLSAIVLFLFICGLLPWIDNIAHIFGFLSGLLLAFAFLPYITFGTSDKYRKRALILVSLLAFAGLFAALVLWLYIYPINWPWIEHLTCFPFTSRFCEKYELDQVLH
Assay: FACS binding to RPMI-8226 cells endogenously expressing iRhom2
Conditions: antibody at 3 μg/ml
Method: In this study, binding specificity analyses of the humanized antibody 42-B-02 as a representative example of the antibodies of the invention in cell lines endogenously expressing iRhom2 were performed. The studies were conducted on RPMI-8226 cells, a human B lymphocytic cell line endogenously expressing iRhom2 but being endogenously negative for iRhom1, on THP-1 cells, a human monocytic cell line endogenously expressing both iRhom2 and iRhom1 and on RH-30 cells, a human […] cell line endogenously negative for iRhom2 but endogenously expressing iRhom1.
In brief, human RPMI-8226 cells (Deutsche Sammlung von Mikroorganismen und Zellkulturen, Germany), THP-1 cells (American Type Culture Collection, USA) and RH-30 cells (Deutsche Sammlung von Mikroorganismen und Zellkulturen, Germany) were harvested with 10 mM EDTA in PBS, washed and resuspended in FACS buffer (PBS, 3% FBS, 0.05% sodium azide), and seeded in Nunc U-bottom 96-well plates (Thermo Fisher Scientific, USA) at approximately 2×10^5 cells per well. In order to pellet cells and remove supernatants, the plates were centrifuged at 1,500 rpm and 4° C. for 3 minutes. […] Finally, cells were resuspended in 150 μl per well of FACS buffer and analyzed using a BD Accuri™ C6 Plus flow cytometer (Becton Dickinson, Germany).

B1: 42-B-02: humanized antibody binding human iRhom2; HCVD SEQ ID NO 33, LCVD SEQ ID NO 37 (antibody, V domains shown)
VH: QVTLRESGPALVKPTQTLTLTCTFSGFSLSTFGRGVGWIRQPPGKALEWLAHIWWDDEKYYNSALKSRLTISKDTSKNQVVLTITNMDPVDTATYYCARIQNYGSNYWYFDVWGQGTLVTVSS
VL: AIQLTQSPSSLSASVGDRVTITCRASSRISYMFWYQQKPGKAPKVLIYDTSNLASGVPSRFSGSGSGTDYTLTISSLQPEDFATYYCQQWNSYPLTFGQGTKLEIK
modifications: antibody sequences
- binding to RPMI-8226 cells (endogenously expressing iRhom2, negative for iRhom1): strong binding
